Experiment [1] concerns the target recombinant enovin (mature Enovin with NH2-terminal 6x His-tag, expressed from hEVNmat/pRSETB in E. coli BL21(DE3), refolded) (human). As to the kind of experiment: SPR (BIAcore 3000, 25 °C), enovin immobilised, soluble GFRα3-Fc as analyte, three concentrations. For orientation: Surface plasmon resonance follows binding to a sensor surface in real time, without labels.

Experiment [2] has the same target. Kind of experiment: SPR (BIAcore 3000, 25 °C), enovin immobilised, soluble GFRα3-Fc as analyte; KD calculated as kd/ka.

B1: soluble GFRα-3 IgG-Fc fusion protein (GFRα-3 amino acids 28 to 371 fused to human IgG1-Fc) (Fc fusion, UniProt O60609 28-371, looked up, not shown: a dimerising Fc or GST)
chain: LAAGDPLPTESRLMNSCLQARRKCQADPTCSAAYHHLDSCTSSISTPLPSEEPSVPADCLEAAQQLRNSSLIGCMCHRRMKNQVACLDIYWTVHRARSLGNYELDVSPYEDTVTSKPWKMNLSKLNMLKPDSDLCLKFAMLCTLNDKCDRLRKAYGEACSGPHCQRHVCLRQLLTFFEKAAEPHAQGLLLCPCAPNDRGCGERRRNTIAPNCALPPVAPNCLELRRLCFSDPLCRSRLVDFQTHCHPMDILGTCATEQSRCLRAYLGLIGTAMTPNFVSNVNTSVALSCTCRGSGNLQEECEMLEGFFSHNPCLTEAIAAKMRFHSQLFSQDWPHPTFAVMAHQ
Usually koff stands for a measure of how fast the partners let go of each other. As a reminder, the kon is a measure of how fast the partners come together. For orientation: Kd means a measure of binding affinity in units of concentration. With B1, in experiment [1], the koff came to 0.000508 s⁻¹ and the kon was 165000 M⁻¹ s⁻¹. Also, the Kd in experiment [2] is 3.1 nM.

Values taken from US7067473.
